Measured values from US20220143148A1, “COMPOSITIONS AND METHODS FOR MODULATING CGRP SIGNALING TO REGULATE INTESTINAL INNATE LYMPHOID CELLS” (The Broad Institute, Inc., priority 2019, published 2022).

Test system: small intestinal immune cells
Assay: Droplet-based scRNA-seq of small intestinal immune cells (LP and PP), OVA vs PBS, clustering and differential expression
Format: in vivo, mouse
Excerpt: To comprehensively characterize small intestinal immune cells, Applicants generated scRNA-Seq profiles for 58,067 immune cells collected from lamina propria (LP) and Peyer's patch (PP) regions at steady state and after induction of a type 2 inflammatory reaction to ovalbumin (OVA) (Brandt et al., 2003) (FIGS. 1A and 8A). To ensure sufficient representation of rare cells, Applicants combined a normalization strategy—removing by flow sorting either a portion of IgD+ naïve B cells, which are the most abundant cell type in PPs, or all CD19+ and CD3+ T cells (FIG. 8B, Methods)—with profiling of a sufficiently large number of cells number (P>0.99 to recover at least 15 cells from each cluster, Methods) by massively parallel scRNA-seq (Haber et al., 2017) (Methods). Applicants obtained 36,797 and 21,270 high quality cells passing initial filtering (Methods) from PP and LP regions, respectively.
Overall, Applicants annotated 27 cell subsets across the two compartments, spanning T cells, B cells, ILCs, dendritic cells (DCs), myeloid cells and stromal cells, in frequencies ranging from 0.07% to 14%. Briefly, Applicants first partitioned the cells from the PP regions by unsupervised clustering (Methods) into 46 clusters, retained the 97% of cells that were robustly assigned cell identities in each cluster (Methods), assigned the cells from the LP regions to the 46 clusters using a classifier (Methods), and visualized the data with scvis (Ding et al., 2018), a deep generative model-based method (FIGS. 1B and 8C, Methods). Next, Applicants identified genes that were differentially expressed between the cells in each cluster and the remaining cells (Table 1, Methods), as well as between pairs of clusters (Table 2), to elucidate identities of similar cell types/states. Applicants excluded from downstream analysis clusters mostly consisting of contaminants from epithelium, likely doublets, or cells with a small number of Unique Molecular Identifiers (UMIs) (FIGS. 1C and 8D), or lacking distinct markers (Methods). Altogether, Applicants retained 27 clusters spanning 85% of the cells and each associated with distinct marker genes (FIG. 8E, Methods).
To induce allergic reaction to OVA, 6 to 7 weeks old mice were sensitized twice, two weeks apart, with 50 μg of OVA plus 1 mg of aluminum potassium sulfate adjuvant via intraperitoneal injection. Two weeks later, mice were orally administered with 50 mg of OVA on every other day for a total of five times. 1 μg of α-CGRP peptide was administered simultaneously when indicated. Mice were deprived of food for 3-4 hours in cages with wood chip bedding for limiting antigen degradation in the stomach before each intragastric challenge.
Isolation of cells from Peyer's patches (PPs). Peyer's patches (PPs) were carefully dissected from the small intestine under a stereo microscope using a fine scissor, pierced once with a fine forcep. Tissues were digested in freshly made digestion buffer (RPMI-1640 containing 100 μg/ml Liberase™ and 50 μg/ml DNase I at 37° C. on a roto-mixer. After 15 min, tissues were very gently mixed using a 1 ml pipette. The supernatant was collected and added to ice-cold MACS buffer (pH 7.4; PBS plus 2% FCS and 2 mM EDTA). Pre-warmed (37° C.) fresh digestion buffer was added to the remaining tissues. After rotation at 37° C. for 15 min, the mixture was vigorously mixed using a 1 ml pipette for 1 min. Supernatants from the two steps were combined and passed through 70 μm filters and stained for FACS (below).
Isolation of cells from the lamina propria (LP). The small intestines were opened longitudinally and washed in ice-cold PBS. For scRNA-seq, roughly 0.5 cm of fragments from each of the distal, middle and proximal regions without visible PPs were collected. Epithelial cells were dissociated by tissue rotation in pre-warmed (37° C.) PBS containing 10 mM EDTA at 37° C. for 15 min, followed by additional incubation on ice for 15 min. Tissues were then shaken vigorously. […]

B1: OVA (protein, UniProt P01012 2-386, looked up)
Ovalbumin: GSIGAASMEFCFDVFKELKVHHANENIFYCPIAIMSALAMVYLGAKDSTRTQINKVVRFDKLPGFGDSIEAQCGTSVNVHSSLRDILNQITKPNDVYSFSLASRLYAEERYPILPEYLQCVKELYRGGLEPINFQTAADQARELINSWVESQTNGIIRNVLQPSSVDSQTAMVLVNAIVFKGLWEKAFKDEDTQAMPFRVTEQESKPVQMMYQIGLFRVASMASEKMKILELPFASGTMSMLVLLPDEVSGLEQLESIINFEKLTEWTSSNVMEERKIKVYLPRMKMEEKYNLTSVLMAMGITDVFSSSANLSGISSAESLKISQAVHAAHAEINEAGREVVGSAEAGVDAASVSEEFRADHPFLFCIKHIATNAVLFFGRCVSP
Cluster ID 5, PP, OVA vs PBS
  Txnip: LN (average fold change): 0.660
  Uba52: LN (average fold change): 0.277
  Ucp2: LN (average fold change): 0.325
  Wdr89: LN (average fold change): 0.291
  Zfp36l2: LN (average fold change): 0.865
Cluster ID 6, PP
  AY036118: percentage of expressing cells in OVA-treated group: 0.426
  Atf3: percentage of expressing cells in OVA-treated group: 0.091
  Atp5h: percentage of expressing cells in OVA-treated group: 0.963
  B3gnt8: percentage of expressing cells in OVA-treated group: 0.486
  Bcl2l11: percentage of expressing cells in OVA-treated group: 0.257
  Bhlhe40: percentage of expressing cells in OVA-treated group: 0.465
  Bloc1s2: percentage of expressing cells in OVA-treated group: 0.784
  Btg2: percentage of expressing cells in OVA-treated group: 0.801
  Ccl4: percentage of expressing cells in OVA-treated group: 0.848
  Cd68: percentage of expressing cells in OVA-treated group: 0.861
  Cd83: percentage of expressing cells in OVA-treated group: 0.092
  Cdv3: percentage of expressing cells in OVA-treated group: 0.414
  Clcn3: percentage of expressing cells in OVA-treated group: 0.35
  Clec10a: percentage of expressing cells in OVA-treated group: 0.532
  Clec2d: percentage of expressing cells in OVA-treated group: 0.578
  Coq10b: percentage of expressing cells in OVA-treated group: 0.242
  Crem: percentage of expressing cells in OVA-treated group: 0.34
  Cxcr3: percentage of expressing cells in OVA-treated group: 0.516
  Cxcr4: percentage of expressing cells in OVA-treated group: 0.561
  D13Ertd608e: percentage of expressing cells in OVA-treated group: 0.947
  Ddit4: percentage of expressing cells in OVA-treated group: 0.221
  Ddx3x: percentage of expressing cells in OVA-treated group: 0.436
  Defa24: percentage of expressing cells in OVA-treated group: 0.099
  Dnajc7: percentage of expressing cells in OVA-treated group: 0.987
  Dusp1: percentage of expressing cells in OVA-treated group: 0.406
  Dusp5: percentage of expressing cells in OVA-treated group: 0.668
  Dusp18: percentage of expressing cells in OVA-treated group: 0.091
  Egr1: percentage of expressing cells in OVA-treated group: 0.143
  Emp3: percentage of expressing cells in OVA-treated group: 0.936
  Erdr1: percentage of expressing cells in OVA-treated group: 0.149
  Fabp2: percentage of expressing cells in OVA-treated group: 0.048
  Fam46c: percentage of expressing cells in OVA-treated group: 0.221
  Filip1l: percentage of expressing cells in OVA-treated group: 0.384
  Fkbp5: percentage of expressing cells in OVA-treated group: 0.161
  Fosb: percentage of expressing cells in OVA-treated group: 0.332
  Fosl2: percentage of expressing cells in OVA-treated group: 0.141
  Foxp1: percentage of expressing cells in OVA-treated group: 0.719
  Fyn: percentage of expressing cells in OVA-treated group: 0.756
  Gapdh: percentage of expressing cells in OVA-treated group: 0.911
  Gapt: percentage of expressing cells in OVA-treated group: 0.657
  Gnb1: percentage of expressing cells in OVA-treated group: 0.515
  Grasp: percentage of expressing cells in OVA-treated group: 0.193
  Gtf2i: percentage of expressing cells in OVA-treated group: 0.542
  H2-Aa: percentage of expressing cells in OVA-treated group: 0.947
  H2-Ab1: percentage of expressing cells in OVA-treated group: 0.949
  H2-Eb1: percentage of expressing cells in OVA-treated group: 0.907
  H2afj: percentage of expressing cells in OVA-treated group: 0.935
  Hes6: percentage of expressing cells in OVA-treated group: 0.474
  Hist1h1c: percentage of expressing cells in OVA-treated group: 0.522
  Hist2h4: percentage of expressing cells in OVA-treated group: 0.165
  Ier2: percentage of expressing cells in OVA-treated group: 0.432
  Ier5: percentage of expressing cells in OVA-treated group: 0.937
  Ifi30: percentage of expressing cells in OVA-treated group: 0.883
  Ifrd1: percentage of expressing cells in OVA-treated group: 0.241
  Igha: percentage of expressing cells in OVA-treated group: 0.681
  Igkc: percentage of expressing cells in OVA-treated group: 0.944
  Itpkb: percentage of expressing cells in OVA-treated group: 0.296
  Jun: percentage of expressing cells in OVA-treated group: 0.769
  Junb: percentage of expressing cells in OVA-treated group: 0.745
  Jund: percentage of expressing cells in OVA-treated group: 0.92
  Kdm6b: percentage of expressing cells in OVA-treated group: 0.307
  Klf4: percentage of expressing cells in OVA-treated group: 0.147
  Klk1: percentage of expressing cells in OVA-treated group: 0.964
  Kmt2e: percentage of expressing cells in OVA-treated group: 0.596
  Lag3: percentage of expressing cells in OVA-treated group: 0.605
  Lgals1: percentage of expressing cells in OVA-treated group: 0.985
  Lmnb1: percentage of expressing cells in OVA-treated group: 0.189
  Ly6c1: percentage of expressing cells in OVA-treated group: 0.991
  Lyz1: percentage of expressing cells in OVA-treated group: 0.035
  Mcl1: percentage of expressing cells in OVA-treated group: 0.459
